Assay results reported in paper PMC12643061, “Structural dynamics of the plant hormone receptor ETR1 in a native‐like membrane environment” (Febs Letters, 2025).

Biological target: the molecule itself
Assay: SEC; ETR1 in DMPC/MSP1E3D1 nanodiscs; Superose 6 Increase 10/300 GL, 50 mM Tris-HCl pH 8.0, 200 mM NaCl, 0.3 mL/min; column calibrated with protein standards; elution volume 16.77 mL, ~450 kDa

B1: ethylene receptor 1 (ETR1) from Arabidopsis thaliana, full-length, with N-terminal 10xHis-tag (receptor, UniProt P49333 1-738, looked up)
chain: MEVCNCIEPQWPADELLMKYQYISDFFIAIAYFSIPLELIYFVKKSAVFPYRWVLVQFGAFIVLCGATHLINLWTFTTHSRTVALVMTTAKVLTAVVSCATALMLVHIIPDLLSVKTRELFLKNKAAELDREMGLIRTQEETGRHVRMLTHEIRSTLDRHTILKTTLVELGRTLALEECALWMPTRTGLELQLSYTLRHQHPVEYTVPIQLPVINQVFGTSRAVKISPNSPVARLRPVSGKYMLGEVVAVRVPLLHLSNFQINDWPELSTKRYALMVLMLPSDSARQWHVHELELVEVVADQVAVALSHAAILEESMRARDLLMEQNVALDLARREAETAIRARNDFLAVMNHEMRTPMHAIIALSSLLQETELTPEQRLMVETILKSSNLLATLMNDVLDLSRLEDGSLQLELGTFNLHTLFREVLNLIKPIAVVKKLPITLNLAPDLPEFVVGDEKRLMQIILNIVGNAVKFSKQGSISVTALVTKSDTRAADFFVVPTGSHFYLRVKVKDSGAGINPQDIPKIFTKFAQTQSLATRSSGGSGLGLAISKRFVNLMEGNIWIESDGLGKGCTAIFDVKLGISERSNESKQSGIPKVPAIPRHSNFTGLKVLVMDENGVSRMVTKGLLVHLGCEVTTVSSNEECLRVVSHEHKVVFMDVCMPGVENYQIALRIHEKFTKQRHQRPLLVALSGNTDKSTKEKCMSFGLDGVLLKPVSLDNIRDVLSDLLEPRVLYEGM
notes: Ethylene receptor 1 (ETR1), Arabidopsis thaliana, full length, 738 residues, 82.5 kDa per monomer; Membrane protein, measured embedded in DMPC nanodiscs held by the scaffold protein MSP1E3D1 (His-tag cleaved by TEV); No cleavage of the ETR1 His-tag is described; the loaded nanodiscs were eluted from Ni-INDIGO beads by it just before SEC; also called ETR1_10xHis; ethylene receptor ETR1; source: E. …
- stoichiometry N: 2
